Measured values published in publication doi:10.1101/2019.12.15.876185.

System: CTCF (human)
Assay: EMSA

## Cacna1b e37a DNA probe (139 bp)
  Kd: 0.0461 ng
